Substrate in the data set: CCCCCCCCCCCCCCCC(=O)Oc1ccc([N+](=O)[O-])cc1
Description: p-nitrophenol release, Lineweaver-Burk. The class given is biochemical, Rhizopus microsporus. As to conditions: emulsified substrate, 40°C, pH 8.5, printed Km unit is a misprint, printed kcat/Km 6.22 × 10^4 M^-1 s^-1 implies mM. An excerpt:
p-nitrophenol release, Lineweaver-Burk on r27RCL

The term kcat denotes the number of substrate molecules converted per active site and unit of time at saturation. The kcat/Km is the second-order rate constant that governs catalysis at low substrate concentration.

B1: r27RCL (Rhizopus microsporus var. chinensis) (protein)
chain: DTETVGGMTLDLPENPPPIPATSTAPSSDSGEVVTATAAQIKELTNYAGVAATAYCRSVVPGTKWDCKQCLKYVPDGKLIKTFTSLLTDTNGFILRSDAQKTIYVTFRGTNSFRSAITDMVFTFTDYSPVKGAKVHAGFLSSYNQVVKDYFPVVQDQLTAYPDYKVIVTGHSLGGAQALLAGMDLYQREKRLSPKNLSIYTVGCPRVGNNAFAYYVDSTGIPFHRTVHKRDIVPHVPPQAFGYLHPGVESWIKEDPADVQICTSNIETKQCSNSIVPFTSIADHLTYFGINEGSCL
notes: proRCL gene in pPIC9K, secreted from Pichia pastoris GS115, purified on SP-Sepharose and Phenyl-Sepharose
Take B1: the kcat turned out to be 18.9 s⁻¹ and the kcat/Km was 62200 M⁻¹ s⁻¹.

Source of the values: article PMC3503730, “Enhanced thermostability of a Rhizopus chinensis lipase by in vivo recombination in Pichia pastoris” (Microbial Cell Factories, 2012).
